Assay [1] concerns the target calmodulin (CaM) cysteine mutant E11C (UniProt P0DP23). In words: FRET or BRET.
Assay [2] deals with Alexa Fluor 594-modified E11C CaM (UniProt P0DP23). Put plainly: FRET or BRET. For orientation: BRET reads energy transfer from a luciferase to a nearby fluorophore.
In assay [3] the target is Alexa Fluor 555-labeled E11C calmodulin mutant (UniProt P0DP23). Put plainly: FRET or BRET.
For assay [4], the target named is calmodulin (CaM) cysteine mutant M76C (UniProt P0DP23). In words: solvatochromic fluorescence.
Assay [5] concerns the target calmodulin (CaM) cysteine mutant M145C (UniProt P0DP23). Put plainly: solvatochromic fluorescence.
The target of assay [6] is calmodulin (CaM) cysteine mutant E11C (UniProt P0DP23). In words: solvatochromic fluorescence.

The substance “4DMN/Alexa 555-labeled M13 peptide (4DMN at position 8, Alexa Fluor 555 on an N-terminal cysteine)” showed an increase in the acceptor fluorescence after Ca2+ addition in assay [1] of 4.9 fold.

In turn, “4DMN-labeled M13 peptide (M13, the calmodulin-binding peptide, with the 4DMN amino acid at position 8)” gave an FRET fluorescence increase at 611 nm in assay [2] of 5.5 fold. Also, the increase of the direct fluorescence emission from 4DMN in assay [2] was determined as 114 fold. In addition, the FRET fluorescence increase (Ca2+-bound over apo-state) in assay [3] was found to be 23 fold. Also, the 4DMN fluorescence increase at 505 nm (Ca2+-bound complex over apo-state) was determined as 180 fold in assay [4], 43 fold in assay [5] and 98 fold in assay [6].
